Assay results published in patent US20230287094A1 (LUDWIG INSTITUTE FOR CANCER RESEARCH, published 2023).
Where a chain is given by its changes, count along the chain named.

B1: MTGF-β3-1901/16 (antibody, IgG1, V domains shown)
VH: QVLLQQSGPELVKPGASVKISCKASGYAFSSSWIHWVKQRPGKGLEWIGRIYPGDGDTNYTGKFKGKATLTADKSSSTAYMQLSSLTSEDSAVYFCARRMITTQAAMDYWGQGTSVTVSS
VL: SFVMTQTPKFLLVSAGDRVTITCKASQSVINAVAWYQQKPGQSPKLLIYYASNRYTGVPDRFTGNGYGTDFTFTISTVQAEDLAVYFCQQDYSSPYTFGGGTKLEIK
B2: MTGF-β3-1679/2 (antibody, IgG2a, V domains shown)
VH: B1 VH
VL: B1 VL
B3: MTGF-β3-9/8 (antibody, IgG2a, V domains shown)
VH: B1 VH with I34M, Y52F, N59I, T61N, K63N
VL: B1 VL with F2I, A32D
B4: MTGF-β3-1719/13 (antibody, IgG2a, V domains shown)
VH: QVQLQQPGAELVKPGASVKMSCKASGYIFTSYWITWVKQRPGQGLEWIGDIFPGTGSTNYNEKFKTKASLTVDTSSSTANMQLSSLTSEDSAVYSCARKLGPNYAVDYWGQGTSVTVSS
VL: DVVMTQTPLSLPVSLGDQASISCRSSQSLIHSHGNTYLHWYLQKPGQSPKLLIYKLSNRFSGVPDRFSGSGSGTDFTLKISRVEAEDLGVYFCSQSTHVPFTFGSGTKLEIK
notes: also called TGF-ß3-17
B5: 1D11 mouse monoclonal anti-TGF-ß antibody (antibody, from another filing, V domains shown)
VH: QVQLQQSGPELVRPGASVKLSCKASGYIFITYWMNWVKQRPGQGLEWIGQIFPASGSTNYNEMFEGKATLTVDTSSSTAYMQLSSLTSEDSAVYYCARGDGNYALDAMDYWGQGTSVTVSS
VL: DIVLTQSPASLAVSLGQRATISCRASESVDSYGNSFMHWYQQKSGQPPKLLIYLASNLESGVPARFSGSGSRTDFTLTIDPVEADDAATYYCQQNNEDPLTFGAGTKLEIK
B6: MTGF-β3-1203/11 (antibody, IgG2b, V domains shown)
VH: QVQLKQSGAELVKPGASVKISCKASGYTFTDYYINWVKQRPGQGLEWIGKIGPGTGRTYYNEKFKGKATLTADKSSSTAYMQLSSLTSEDSAVYFCAIYYGWGYAMDYWGQGTSVTVSS
VL: DIVMTQSPSSLSVSAGEKVTMSCKSSQSLLNSGNQKNYLAWYQQKSGQPPKLLIYGASTRESGVPDRFTGSGSGTDFTLTISSVQAEDLAVYYCQNDHGFPLTFGAGTKLELK

Key:
human TGF-β3 = target: T1, human TGF-β3 (human, UniProt P10600 301-412); experiment: cell-based or functional assay
T1 sequence: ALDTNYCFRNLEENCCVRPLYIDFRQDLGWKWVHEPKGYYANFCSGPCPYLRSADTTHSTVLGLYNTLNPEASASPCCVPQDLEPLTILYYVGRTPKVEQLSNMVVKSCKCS

human TGF-β1 = human TGF-β1 (human, UniProt P01137 279-390); experiment: cell-based or functional assay
Sequence of human TGF-β1 (P01137 279-390 limits assumed): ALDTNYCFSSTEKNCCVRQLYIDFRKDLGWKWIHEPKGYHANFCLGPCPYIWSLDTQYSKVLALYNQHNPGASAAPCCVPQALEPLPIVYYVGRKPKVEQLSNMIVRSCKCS

human TGF-β2 [1] = target: T2, human TGF-β2 (human, UniProt P61812 303-414); experiment: assay not named
T2 construct: also called TGF-ß2
T2 sequence (looked up): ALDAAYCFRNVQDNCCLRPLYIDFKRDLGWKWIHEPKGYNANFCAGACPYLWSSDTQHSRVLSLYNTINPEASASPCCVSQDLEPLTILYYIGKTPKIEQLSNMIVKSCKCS
Description: Mink lung epithelial cell line (TMLECs) were stably transfected with a truncated PAI-1 promoter fused to the firefly luciferase reporter gene. 500 pg/ml human TGF-ß3 was incubated with serial dilutions of isolated TGF-β3 antibody for 4 h at 37° C. before transfer to an equal volume of culture medium (DMEM + 10 % FCS) where 50,000 TMLEC cells had been seeded 1 - 4 h earlier. After a further 24 h incubation, luciferase activity was measured with the BRITELITE kit from Perkin-Elmer and luminescence was measured in a TOPCOUNT NXT from Perkin Elmer.
Antibody ranging from 10 to 0 µg/ml were incubated with 500 pg/ml of the different TGF-β isoforms and TMLEC cells for 24 hours.

human TGF-β2 [2] = target: T2, human TGF-β2; experiment: cell-based or functional assay

Row | Binder | IC 50 (ng/ml), TMLEC PAI-1 promoter luciferase assay (human TGF-β3) [ng/mL] | IC 50 (ng/ml), TMLEC PAI-1 promoter luciferase assay (human TGF-β1) [ng/mL] | binding result (human TGF-β2 [1]) | IC 50 (ng/ml), TMLEC PAI-1 promoter luciferase assay (human TGF-β2 [2]) [ng/mL]
1 | B1 | 25 |  |  | 
2 | B2 | 6 |  |  | 
3 | B3 | 13 |  |  | 
4 | B4 | 79 | 263 | binds | 
5 | B5 | 6.5 | 72 |  | 53.7
6 | B6 | 54 |  |  | 
